In patent publication US20210139605A1 (AGENCY FOR SCIENCE TECHNOLOGY AND RESEARCH, published 2021):

Legend:
[1] = target: T1, human HER-2 protein (soluble / recombinant, used in SPR) (human, UniProt P04626 23-652); experiment: SPR, immobilized HER2 protein
T1 construct: also called immobilized HER2 protein; recombinant HER-2

[2] = target: T1, human HER-2 protein (soluble / …); experiment: SPR, human HER2 immobilised, Fab flown, 1:1 Langmuir model
Procedure: Rate constants of association, dissociation (kₐ, kd) and the equilibrium dissociation constants (KD) were determined for anti-HER2 Fab molecules. Human HER2 protein (50 μg/mL) was immobilised on the SPR sensor chip and was exposed to five different concentrations of each Fab in 2- or 3-fold dilutions over the flow cells. 1:1 Langmuir model was used to derive the constants.

[3] = target: T1, human HER-2 protein (soluble / …); experiment: SPR
EGFR [4] = target: T2, EGFR (UniProt P00533 25-645, limits assumed); experiment: SPR, EGFR immobilised on the chip, antibody flowed; concentration not given [panel P1F1]
T2 construct: also called HER1
Source text: (§1) In order to assess the specificity of the binding, molecules closely related to HER-2 were also used as bound antigens, namely EGFR and HER-3.

HER-3 [5] = target: T3, HER-3 (UniProt P21860 20-643, limits assumed); experiment: SPR, HER-3 immobilised on the chip, antibody flowed; concentration not given [panel P1F1]
T3 sequence (P21860 20-643 limits assumed): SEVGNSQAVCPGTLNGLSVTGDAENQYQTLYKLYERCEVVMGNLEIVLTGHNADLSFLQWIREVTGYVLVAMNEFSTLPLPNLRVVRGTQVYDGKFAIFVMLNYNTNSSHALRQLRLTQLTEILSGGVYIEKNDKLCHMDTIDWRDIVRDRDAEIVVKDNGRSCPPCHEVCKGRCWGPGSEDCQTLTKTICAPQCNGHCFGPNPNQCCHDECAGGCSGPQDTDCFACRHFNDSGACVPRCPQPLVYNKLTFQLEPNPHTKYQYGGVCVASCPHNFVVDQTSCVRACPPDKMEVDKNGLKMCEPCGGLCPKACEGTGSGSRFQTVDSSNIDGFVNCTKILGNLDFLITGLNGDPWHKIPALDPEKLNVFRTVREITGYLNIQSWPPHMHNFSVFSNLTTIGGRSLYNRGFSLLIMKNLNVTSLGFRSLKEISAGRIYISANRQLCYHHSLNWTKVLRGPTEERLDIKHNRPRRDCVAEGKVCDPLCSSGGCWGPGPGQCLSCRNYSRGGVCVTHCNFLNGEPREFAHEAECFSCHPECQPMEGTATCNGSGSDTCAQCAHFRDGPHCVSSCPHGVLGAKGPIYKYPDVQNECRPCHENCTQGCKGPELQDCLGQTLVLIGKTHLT
Source text: as §1

EGFR [6] = target: T2, EGFR; experiment: SPR, EGFR immobilised on the chip, antibody flowed; concentration not given [panel P1A3]
Source text: as §1

HER-3 [7] = target: T3, HER-3; experiment: SPR, HER-3 immobilised on the chip, antibody flowed; concentration not given [panel P1A3]
Source text: as §1

EGFR [8] = target: T2, EGFR; experiment: SPR, EGFR immobilised on the chip, antibody flowed; concentration not given [panel P1C5]
Source text: as §1

HER-3 [9] = target: T3, HER-3; experiment: SPR, HER-3 immobilised on the chip, antibody flowed; concentration not given [panel P1C5]
Source text: as §1

EGFR [10] = target: T2, EGFR; experiment: SPR, EGFR immobilised on the chip, antibody flowed; concentration not given [panel P1E4]
Source text: as §1

HER-3 [11] = target: T3, HER-3; experiment: SPR, HER-3 immobilised on the chip, antibody flowed; concentration not given [panel P1E4]
Source text: as §1

| koff [1] | Kd [2] | koff [2] | kon [2] | Binder | other results |
| --- | --- | --- | --- | --- | --- |
| 0.017 s⁻¹ | 112 nM | 0.02 s⁻¹ | 176000 M⁻¹ s⁻¹ | PFB5 Fab (Fab, V domains shown, Printed entries run through CL and CH1 (Fab chains); Label B5 tied to PFB5 by inference) VH: EVQLVQSGAEVKKPGSSVKVSCKASGGTFSSYAISWVRQAPGQGLEWMGGIIPIFGTANYAQKFQGRVTITADESTSTAYMELSSLRSEDTAVYYCARGRGSGYPDTWFWFDPWGQGTLVTVSS VL: not shown |  |
| 0.00565 s⁻¹ |  |  |  | PFB1 Fab (Fab, V domains shown, Printed entries run through CL and CH1 (Fab chains); Label B1 tied to PFB1 by inference) VH: QVQLQESGGGLVQPGGSLRLSCAASGFTFSSFAMNWVRQAPGKGLEWVSTIGGSGDSTFYADPVKGRFTVSRDNSKNTLYLQMNSLRAEDTAVYYCAQAYGSGGHYFFAYWGQGTLVTVSS VL: DVVMTQSPLSLPVTPGEPASISCRSSQSLLHSNGNTYLDWYLQKPGQSPQVLIYSGSNRASGVPDRFSGSGSGTDFTLKISRVEAEDVGVYYCMQGTHWPPTFGQGTKVEIKR |  |
| 0.0102 s⁻¹ |  |  |  | PFB3 Fab (Fab, V domains shown, Printed entries run through CL and CH1 (Fab chains); Label B3 tied to PFB3 by inference) VH: QVQLQESGGGLVQPGGSLRLSCAASGFTFSSYAMSWVRQAPGKGLEWVSAISGSGGSTYYADSVKGRFTISRDNSKNTVYLQMNSLRAEDTAVYYCARTYYDFWSGRVGAFDIWGQGTTVTVSS VL: not shown |  |
| 0.0196 s⁻¹ | 20.5 nM | 0.042 s⁻¹ | 2.03e+06 M⁻¹ s⁻¹ | PFA4 Fab (Fab, V domains shown, Printed entries run through CL and CH1 (Fab chains); Label A4 tied to PFA4 by inference) VH: EVQLVQSGGGVVQPGRSLRLSCAASGFTFSSYAMHWVRQAPGKGLEWVAVISYDGSNKYYADSVKGRFTISRDNSKNTLYLQMNSLRAEDTAVYYCARSRGYYGMDVWGQGTTVTVSS VL: not shown |  |
| 0.0322 s⁻¹ | 17.6 nM | 0.078 s⁻¹ | 4.41e+06 M⁻¹ s⁻¹ | PFB4 Fab (Fab, V domains shown, Printed entries run through CL and CH1 (Fab chains); Label B4 tied to PFB4 by inference) VH: EVQLVQSGGGVVQPGRSLRLSCAASGFTFSSYGMHWVRQAPGKGLEWVAVISYDGSNKYYADSVKGRFTISRDDSKNTLYLQMNSLRAEDTAVYYCAKDRGYYGMDVWGQGTTVTVSS VL: QAVVIQEPSLTVSPGGTVTLTCGSTTGAVTSGHYPSWFQQKPGQAPRALIYSTSNKHSWTPARFSGSLLGGKAALTLSGVQPEDEAEYYCLLYYGGARVFGGGTKLTVLG |  |
| 0.013 s⁻¹ | 16.5 nM | 0.026 s⁻¹ | 1.59e+06 M⁻¹ s⁻¹ | PFE1 Fab (Fab, V domains shown, Printed entries run through CL and CH1 (Fab chains); Label E1 tied to PFE1 by inference) VH: EVQLVQSGGGVVQPGRSLRLSCAASGFTFSSYAMHWVRQAPGKGLEWVAVISYDGSNKYYADSVKGRFTISRDNSKNTLYLQMNSLRAEDTAVYYCARSRGYYGMDVWGQGTTVTVSS VL: DVVMTQSPLSLPVTLGQPASISCTSSQSLVYSDGNTYLNWFQQRPGQSPRRLIYKVSKRDSGVPDRFSGSGSGTDFTLKISRVEAEDVAIYYCMQGTHWPLTFGGGTKVEIKR |  |
|  |  |  |  | P1F1 antibody (antibody, V domains shown) VH: QVQLVESGPGLVKPSGTLSLTCAVSGGSISSSNWWSWVRQPPGKGLEWIGEIYHSGSTNYNPSLKSRVTISVDTSKNQFSLKLSSVTAADTAVYYCARMGANSGGYLYGMDVWGQGTTVTVSS VL: QTVVTQEPSFSVSPGGTVTLTCGLSSGSVSTSYYPSWYQQTPGQAPRTLIYSTNTRSSGVPDRFSGSILGNKAALTITGAQADDESDYYCVLYMGSGIWVFGGGTKLTVLG | Kd [3]: 11.6 nM; binding result (EGFR [4]): no binding; binding result (HER-3 [5]): no binding |
|  |  |  |  | P1A3 antibody (antibody, V domains shown) VH: EVQLVQSGTEVKKPGASVRVSCKSSGYTFTSYYIHWVRQAPGQGLEWMAIINPGNGDTNYAQRFQGRVTMTRDTSTSTVYMELRSLRSDDTAVYFCAREIASYSGSYYDYWGQGTLVTVSS VL: QAVVTQEPSLSVSPGGTVTLTCGLSSGSVSTGHYASWYQQTPGQAPRTLFYNTNTRSSGVPDRFSGSIVGNKAALTITGAQADDESDYYCVLYVGDGIWVFGGGTKLTVLG | Kd [3]: 21.4 nM; binding result (EGFR [6]): no binding; binding result (HER-3 [7]): no binding |
| 0.0141 s⁻¹ | 305 nM | 0.014 s⁻¹ | 44500 M⁻¹ s⁻¹ | PFF5 Fab (Fab, V domains shown) VH: QVQLQESGPGLVKPSETLSLTCTVSGGSISSSSYYWGWIRQPPGKGLEWIGSIYYSGSTYYNPSLKSRVTISVDTSKNQFSLRLSSVSAADTAVYYCARYAPDSSGYLVAFDIWGQGTMVTVSS VL: QAVVIQEPSFSVSPGGTVTLTCGLSSGSVSTTYYPSWYQQTPGQAPRTLIYSTNTRSSGVPDRFSGSILGNKAALTITGAQADDESDYYCVLYMGNGISVFGGGTKLTVLG |  |
|  |  |  |  | P1C5 antibody (antibody, V domains shown) VH: QVQLQESGPGLVKPSETLSLTCTVSGGSISSSSYYWGWIRQPPGKGLEWIGSIYYSGSTYYNPSLKSRVTISVDTSKNQFSLKLSSVTAADTAVYYCARYAPDSSGYLVAFDIWGQGTMVTVSS VL: QTVVTQEPSFSVSPGGTVTLTCGLSSGSVSTGYYPSWYQQTPGQAPRTLIYSTNSRSSGVPDRFSGSILGNKAALTITGAQADDESDYYCVLYMGSGISVFGGGTKLTVLG | Kd [3]: 12.7 nM; binding result (EGFR [8]): no binding; binding result (HER-3 [9]): no binding |
| 0.0158 s⁻¹ | 183 nM | 0.019 s⁻¹ | 108000 M⁻¹ s⁻¹ | PFG3 Fab (Fab, V domains shown, Printed entries run through CL and CH1 (Fab chains); Label G3 tied to PFG3 by inference) VH: EVQLVQSGAEVKKPGTSVTVSCRASGFTFSDYYIHWVRQAPGQGLEWMGWVSAYNGDTNYAQKFQGRVTVTTDTSTSTAYMELRSLRSDDTAVYFCAREIASYSGSYYDYWGQGTLVTVSS VL: QAVVLQEPSFSVSPGGTVTLTCGLTSGAVSSSYYPSWYQQTPGQAPRTLIYNTDIRFSGVPDRFSGSILGNKAALTITGAQADDESDYYCVLYMGSGISVFGGGTKLTVLG |  |
|  |  |  |  | P1E4 antibody (antibody, V domains shown) VH: QVQLQQWGAGLLKPSETLSLTCAVYGGSFSGYYWSWIRQPPGKGLEWIGEINHSGSTNYNPSLKSRVTISVDTSKNQFSLKLSSVTTADTAVYYCARMGINSGGYLYGMDVWGQGTTVTVSS VL: QTVVTQEPSFSVSPGGTVTLTCGLSSGSVSTSYYPSWYQQIPGQAPRTLIYTTNIRSSGVPDRFGGSILGNKAALTITGAQAEDESDYYCMLYMGSGIWVFGGGTKLTVLG | Kd [3]: 5.3 nM; binding result (EGFR [10]): no binding; binding result (HER-3 [11]): no binding |
| 0.000177 s⁻¹ |  |  |  | PFB2 Fab (Fab, V domains shown, Printed entries run through CL and CH1 (Fab chains); Label B2 tied to PFB2 by inference) VH: EVQLVQSGAEVKKPGASVKVSCKASGYTFTSYGISWVRQAPGEGLEWMGWISAYNGNTNYAQKLQGRVTMTTDTSTSTAYMELRSLRSDDTAVYYCARDWGSSWSDYWGQGTLVTVSS VL: ETTLTQSPATLSLSPGERATLSCRASQSVRNNLAWYQHKPGQAPRLLIYYASTRATGIPDRFSGSGSGTDFTLTISRLEPEDFALYYCQHYGSSRTFGQGTKVEIKR |  |
| 0.0528 s⁻¹ | 15.3 nM | 0.063 s⁻¹ | 4.11e+06 M⁻¹ s⁻¹ | PFC3 Fab (Fab, V domains shown, Printed entries run through CL and CH1 (Fab chains); Label C3 tied to PFC3 by inference) VH: QVQLVQSGGGLVQPGGSLRLSCAASGFTFSSYAMSWVRQAPGKGLEWVSGINWNGGSTGYADSVKGRFTISRDNSKNTLYLQMNSLRAEDTAVYYCAKGLVPAASMDVWGQGTTVTVSS VL: not shown |  |
| 0.00326 s⁻¹ |  |  |  | PFA5 Fab (Fab, V domains shown, Printed entries run through CL and CH1 (Fab chains); Label A5 tied to PFA5 by inference) VH: QVQLVQSGAEVKKPGASVKVSCKASGYTFTSYAMHWVRQAPGQRLEWMGWINAGNGNTKYSQKFQGRVTITRDTSASTAYMELSSLRSEDTAVYYCARGGYLVGYWGQGTLVTVSS VL: not shown |  |
